Literature values as cited in publication PMC5497954.
pKd: −log10 of the molar value.

Molecular target: IL2Rβγ (Homo sapiens) (UniProt P14784)
Sequence of UniProt P14784 (P14784 27-240, chain 1 of 2): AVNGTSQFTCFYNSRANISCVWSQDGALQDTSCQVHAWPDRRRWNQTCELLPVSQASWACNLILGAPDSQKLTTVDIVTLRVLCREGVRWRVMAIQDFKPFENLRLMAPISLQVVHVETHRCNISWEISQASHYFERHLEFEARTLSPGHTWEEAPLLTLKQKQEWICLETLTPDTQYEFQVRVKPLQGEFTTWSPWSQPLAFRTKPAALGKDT
Sequence of UniProt P14784 (P31785 23-262, chain 2 of 2, further chain): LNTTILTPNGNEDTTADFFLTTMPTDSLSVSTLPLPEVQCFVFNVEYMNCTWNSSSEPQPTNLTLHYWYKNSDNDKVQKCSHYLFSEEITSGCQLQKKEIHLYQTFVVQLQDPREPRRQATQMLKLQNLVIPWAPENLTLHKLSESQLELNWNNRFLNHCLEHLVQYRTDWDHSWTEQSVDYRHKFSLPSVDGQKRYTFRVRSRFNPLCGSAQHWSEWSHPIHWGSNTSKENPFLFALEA

IL2 (from UniProt P60568)
pKd: 9.00
